The text below walks through data of doi:10.1101/2020.03.02.973859.

The assay concerns the target T1, K+/Cl- co-transporter KCC2 (mouse (endogenous in mouse forebrain)), Q91V14.
T1 chain: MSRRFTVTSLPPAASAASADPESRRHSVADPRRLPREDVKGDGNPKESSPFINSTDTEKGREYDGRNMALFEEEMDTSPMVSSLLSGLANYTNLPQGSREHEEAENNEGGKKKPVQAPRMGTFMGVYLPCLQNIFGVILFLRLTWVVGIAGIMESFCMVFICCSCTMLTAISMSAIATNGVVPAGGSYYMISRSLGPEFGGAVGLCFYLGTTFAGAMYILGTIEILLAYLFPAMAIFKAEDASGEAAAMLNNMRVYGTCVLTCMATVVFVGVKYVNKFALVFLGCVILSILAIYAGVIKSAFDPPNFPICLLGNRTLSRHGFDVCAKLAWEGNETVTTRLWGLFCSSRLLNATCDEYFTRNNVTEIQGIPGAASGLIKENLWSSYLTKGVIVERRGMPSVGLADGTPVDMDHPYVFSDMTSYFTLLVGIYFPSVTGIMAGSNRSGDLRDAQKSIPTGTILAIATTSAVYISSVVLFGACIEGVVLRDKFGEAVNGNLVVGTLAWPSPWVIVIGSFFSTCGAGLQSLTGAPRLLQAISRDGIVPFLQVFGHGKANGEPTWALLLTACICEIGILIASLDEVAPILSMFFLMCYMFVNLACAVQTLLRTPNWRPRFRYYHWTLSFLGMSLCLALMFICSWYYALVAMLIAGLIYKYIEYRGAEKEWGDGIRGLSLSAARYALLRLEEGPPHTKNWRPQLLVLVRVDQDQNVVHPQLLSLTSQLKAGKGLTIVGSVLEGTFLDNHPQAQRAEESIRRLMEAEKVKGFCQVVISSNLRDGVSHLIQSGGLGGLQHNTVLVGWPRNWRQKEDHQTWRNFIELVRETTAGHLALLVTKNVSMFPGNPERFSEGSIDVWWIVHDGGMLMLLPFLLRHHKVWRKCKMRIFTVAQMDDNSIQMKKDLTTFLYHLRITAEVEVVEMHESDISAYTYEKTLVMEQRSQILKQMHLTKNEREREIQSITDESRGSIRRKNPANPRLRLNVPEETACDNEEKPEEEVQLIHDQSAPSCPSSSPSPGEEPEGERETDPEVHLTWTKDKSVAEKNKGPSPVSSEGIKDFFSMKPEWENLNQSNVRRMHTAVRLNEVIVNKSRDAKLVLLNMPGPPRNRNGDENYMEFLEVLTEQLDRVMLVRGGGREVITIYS
The assay can be described thus: native gel or EMSA. The note with it: remark: other sources report otherwise.

B1: K+/Cl- co-transporter KCC2, Q91V14 1-1138 (natural protein)
chain: T1 chain
In the case of B1, the stoichiometry N came to 2.
